# System: P407-induced hyperlipidemia mice
# Experiment: Effect of Repatha on serum TC and LDL-C in P407-induced hyperlipidemia mice (model validation)
# Assay type: in vivo, mouse
# Description: Model preparation and validation: Normal ICR mice were fasted overnight with water ad libitum. The poloxamer 407 (P407, 500 mg/kg) was intraperitoneally injected on the next day. […] The clinical drug Repatha was injected subcutaneously at a dose of 40 mg/kg for 24 hours, followed by intraperitoneal injection of P407. The serum TC and LDL-C levels were measured 24 hours after injection of P407 (Table 25).
# [1] = serum, Repatha 40 mg/kg subcutaneous, 24 hours after P407 injection
molecule,measurement,setting,value
"Repatha: the clinical (marketed) drug Repatha, positive control in the P407 hyperlipidemia model (antibody, chains of the INN, looked up, V domains shown) VH: EVQLVQSGAEVKKPGASVKVSCKASGYTLTSYGISWVRQAPGQGLEWMGWVSFYNGNTNYAQKLQGRGTMTTDPSTSTAYMELRSLRSDDTAVYYCARGYGMDVWGQGTTVTVSS VL: ESALTQPASVSGSPGQSITISCTGTSSDVGGYNSVSWYQQHPGKAPKLMIYEVSNRPSGVSNRFSGSKSGNTASLTISGLQAEDEADYYCNSYTSTSMVFGGGTKLTVL",serum TC and LDL-C levels (in words),"40 mg/kg s.c., P407 500 mg/kg i.p., ICR mice",significantly reduced the serum TC and LDL-C levels
same,LDL-C,[1],0.364 ± 0.097 mmol/L
same,TC,[1],190.0 ± 36.6 mg/dL

# From patent US20230416329A1, “A PEPTIDE WITH DISULFIDE BONDS AND INHIBITORY ACTIVITY AGAINST SERINE PROTEASES, DERIVED HYBRID PEPTIDES THEREOF, AND USES THEREOF” (INSTITUTE OF MATERIA MEDICA , CHINESE ACADEMY OF MEDICAL …, priority 2020, published 2023)
